Assay results: the RNAGym collection of RNA variant scans (doi:10.1073/pnas.2313332121)

B1: TPR t1 (parent)
chain: GACCAAUCUGCCCUCAGAGCUCGAGAACAUCUUCGGAUGCAGAGGAGGCAGGCUUCGGUGGCGCGAUAGCGCCAACGUCCUCAACCUCCAAUGCAUCCCACCACAUGAUGAUGCCUGAAGAGCCUUGGUUUUUUG

Variants of: B1
Assay: polymerase ribozyme fitness, log enrichment relative to wild type (log ratio); higher = more active; in vitro selection for triplet polymerase activity
Procedure, shortened: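 In triplicate, a single round of in vitro selection was run on each mutant library, PCR-built and transcribed, covering one subunit of a heterodimeric triplet polymerase ribozyme. Frozen incubation at −7 °C followed annealing with a biotinylated primer, partner subunit and triplets, and extended constructs were then gel-excised, streptavidin-captured and taken through RT-PCR. Fitness is the logarithm of genotype enrichment over wild-type enrichment, from inverse-variance-weighted replicate averages of Illumina-sequenced inputs and outputs. […] only genotypes with ≥10 input reads and ≥1 read per output were kept.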

In order of falling “polymerase ribozyme fitness (log ratio)” value:
1. GACCAAUCUGCCCUCAGAGCUCGAGAACAUCUUCGGAUGCAGAGGAGGCAGGCCUCGGUGGCGCGAUAGCGCCAACGUCCUCAACCUCCAAUGCAUCCCACCACAUGAUGAUGCCUGAAGAGCUUUGGUUUUUUG [U54C C124U]  1.81
2. GACCAAUCUGCCCUCAGAGCUCGAGAACAUCUUCGGAUGCAGAGGAGGCAGGCCUUGGUGGCGCGAUAGCGCCAACGUCCUCAACCUCCAAUGCAUCCCACCACAUGAUGAUGCCUGAAGAGCCUUGGUUUUGUG [U54C C56U U133G]  0.0417
3. GACCAAUCUGCCCUCAGAGCUCGAGAACAUCUUCGGAUGCAGAGGAGGCAGGCCUCGGUGACGCGAUAGCGCCAACGUCCUCAACCUCCAAUGCAUCCCACCACAUGAUGAUGCCUGAAGAGCCUUGGUUUUUUG [U54C G61A]  -0.24
4. GACCAAUCUGCCCUCAGAGCUCGAGAACAUCUUCGGAUGCAGAGGAGGCAGGCGUCGGUGGCGCGAUAGCGCCAACGUCCUCACCCUCCAAUGCAUCCCACCACAUGAUGAUGCCUGAAGAGCCUUGGUUUUUUG [U54G A84C]  -0.587
5. GACCAAUCUGCCCUCAGAGCUCGAGAACAUCUUCGGAUGCAGAGGAGGCAGGCCUCGGUGGCGCGAUAGCGCCAACGUCCUCAACCUCCAAUGCAUCCCACCACAUGAUGAUGCAUGAAGAGCCUUGGUUUUUUG [U54C C115A]  -0.609
6. GACCAAUCUGCCCUCAGAGCUCGAGAACAUCUUCGGAUGCAGAGGAGGCAGGCCUCGGUGGCGCGAUAGCGCCAACGUCCUCAACCUCCAAUGCAUCCCACCACAUGAUGAUGCCUGGAGAGCCUUGGUUUUUUG [U54C A118G]  -0.7
7. GACCAAUCUGCCCUCAGAGCUCGAGAACAUCUUCGGAUGCAGAGGAGGCAGGCCUCGGUGGCGCGAUAGCGCCAACGUCCUCAACCUCCAAUGCAUCCCACCACAUGAUGAUGCUUGAAGAGCCUUGGUUUUUUG [U54C C115U]  -0.738
8. GACCAAUCUGCCCUCAGAGCUCGAGAACAUCUUCGGAUGCAGAGGAGGCAGGCCUCGGUGGCGCGAUAGCGCCAACGUCCCCAACCUCCAAUGCCUCCCACCACAUGAUGAUGCCUGAAGAGCCUUGGUUUUUUG [U54C U81C A95C]  -0.789
9. GACCAAUCUGCCCUCAGAGCUCGAGAACAUCUUCGGAUGCAGAGGAGGCAGGCCUCGGUGGCGCGAUAGCGCCAACGUCCUCAACCUCCAAUGCAUCCCAGCACAUGAUGAUGCCUGAAGAGCCUUGGUUUUUUG [U54C C101G]  -1
10. GACCAAUCUGCCCUCAGAGCUCGAGAACAUCUUCGGAUGCAGAGGAGGCAGGCAUCGGUGGCGCGAUAGCGCCAACGUCCUCAACCUCCAAUGCAUCCCACCACAUGAUGAUGCCGGAAGAGCCUUGGUUUUUUG [U54A U116G]  -1.91
11. GACCAAUCUGCCCUCAGAGCUCGAGAACAUCUUCGGAUGCAGAGGAGGCAGGCCUCGGUGGCGCGAUAGCGCCAACGUCCUCAACCUCCAAUCCAUCCCACCACAUGAUGAUGCCUAAAGAGCCUUGGUUUUUUG [U54C G93C G117A]  -2.18
12. GACCAAUCUGCCCUCAGAGCUCGAGAACAUCUUCGGAUGCAGAGGAGGCAGGCCUCGGUGGCGCGAUAGCGCCAACGUCAUCAACCUCCAAUGCAUCCCACCACAUGAUGAUGCCUGAAGAGCCAUGGUUUUUUG [U54C C80A U125A]  -2.52
13. GACCAAUCUGCCCUCAGAGCUCGAGAACAUCUUCGGAUGCAGAGGAGGCAGGCCUCGGUGCCGCGAUAGCGCAAACGUCCUCAACCUCCAAUUCAUCCCACCACAUGAUGAUGCCUGAAGAGCCUUGGUUUUUUG [U54C G61C C73A G93U]  -2.61
14. GACCAAUCUGCCCUCAGAGCUCGAGAACAUCUUCGGAUGCAGAGGAGGCAGGCGUCGGUGGCGCGAUAGCGCCAACGUCCUCAACCUCCACUGCAUCCCACCACAUGAUGAUUCCUGAAGCGCCUUGGUUUUUUG [U54G A91C G113U A121C]  -2.85
15. GACCAAUCUGCCCUCAGAGCUCGAGAACAUCUUCGGAUGCAGAGGAGGCAGGCCUCGGUGGCGCGAUAGCGCCAACGUCCUCAACCUCCAAUGCAUGCCACCACAUGAUGAUGCCUGAAGAGUCUUGGUUUUUUG [U54C C97G C123U]  -2.86
16. GACCAAUCUGCCCUCAGAGCUCGAGAACAUCUUCGGAUGCAGAGGAGGCAGGCCUCGGUGGCGCGAUAGCGCUAACGUCCUCUACCUCCAAUGCAUCCCACCACAUGAUGAUUCCUGAAGAGCCUUGGUUUUUGG [U54C C73U A83U G113U U134G]  -2.89
17. GACCAAUCUGCCCUCAGAGCUCGAGAACAUCUUCGGAUGCAGAGGAGGCAGGCCUCGGUGGCGCGAUAGCGCCAACGUCCUCAACGUACAAUGCAUCCCAUCACAUGAUGAUGCCUGAAGAGCCUUGGCUUUUUG [U54C C86G C88A C101U U129C]  -3.66
18. GACCAAUCUGCCCUCAGAGCUCGAGAACAUCUUCGGAUGCAGAGGAGGCAGGCCUCGGUGGCGCGAUAGCACCAACGUCCUCAACCUCCAAUGCAUCCCACAACAUGAUGAUGCCUGAAGAGACUUGGUUUUUUG [U54C G71A C102A C123A]  -3.7
19. GACCAAUCUGCCCUCAGAGCUCGAGAACAUCUUCGGAUGCAGAGGAGGCAGGCCUCGGUGGCGCGAUAGCACCAACGUCCUCAAGCUCCAAUGCAUCCCAUCACAUGAUGAGGCCUGAACAGCCUUGGUUUUUUG [U54C G71A C85G C101U U112G G120C]  -4.36
20. GACCAAUCUGCCCUCAGAGCUCGAGAACAUCUUCGGAUGCAGAGGAGGCAGGCCUCGGUGGCGCGAUAGCGUCAACGUCCUUCACCUCCAAUGCAUCCCACCACAUGAUGAUGCGUAAAGAGCCUUGGCUUUUUG [U54C C72U C82U A83C C115G G117A U129C]  -4.96
21. GACCAAUCUGCCCUCAGAGCUCGAGAACAUCUUCGGAUGCAGAGGAGGCAGGCCUCGGCGUCGCGAUAGCGCCAACGUCCUCAACCUCCAAUGCAUCCCACCACAUGAUGAUGCCUGAAGAGCCAUGGUUUUUUG [U54C U59C G61U U125A]  -6.69
